{"source": "patent US20260062490A1", "about": "(Innovent, published 2026)"}
{"molecular_target": "T1, Human Her2 (Human, UniProt P04626 23-652)", "T1 construct": "also called antigen Her2", "assay": "BLI (ForteBio), antibody loaded on ProA sensors, antigen fusion protein in solution, 30 degrees", "method": "Biolayer Interferometry (BLI) technology was used to test the equilibration dissociation constant (KD) of bispecific antibody binding to the respective antigens in the present disclosure. The BLI method affinity test was performed using an existing method (Estep, P et al., High throughput solution Based measurement of antibody-antigen affinity and epitope binning. MAbs, 2013.5 (2): Pages 270-8).\nHalf an hour before the start of the experiment, a suitable number of ProA (ForteBio, 18-5010) sensors based on the sample size were soaked in SD buffer (PBS 1×, BSA 0.1%, Tween-20 0.05%). 100 μL of SD buffer and antigen fusion protein were taken and added to a 96-well black polystyrene half-area microplate (Greiner, 675076), respectively. The sensor position was selected based on the sample position and layout. The instrument setting parameters are as follows: Run steps: Baseline, Loading ˜1 nm, Baseline, Association and Dissociation; the run time of each step depended on the sample binding and dissociation rate, and the rotational speed was 400 rpm and temperature was 30 degrees. ForteBio analysis software was used to analysis the KD value.", "units": {"Kd": "nM", "koff": "s⁻¹", "kon": "M⁻¹ s⁻¹"}}
{"binder": "Her2/Hel bispecific antibody, Combination 1 in Table 3 / Table 9 / Table 10 (anti-Her2: Q39K, F126C, C220S / Q38D, Q124C, C214S; anti-Hel: Q39D / Q38K) (bispecific antibody, human IgG1, kappa, L234A L235A) heavy 1: not shown light 1: not shown heavy 2: EVRLLESGGGLVQPGGSLRLSCAASGFTFSNYAMGWVRDAPGKGLEWVSAISGSGGSTYYADSVKGRFTTSRDDSKNALYLQMNSLRAEDTAVYYCARGGPGWYAADVWGQGTTVTVSSASTKGPSVFPLAPSSKSTSGGTAALGCLVKDYFPEPVTVSWNSGALTSGVHTFPAVLQSSGLYSLSSVVTVPSSSLGTQTYICNVNHKPSNTKVDKKVEPKSCDKTHTCPPCPAPEAAGGPSVFLFPPKPKDTLMISRTPEVTCVVVDVSHEDPEVKFNWYVDGVEVHNAKTKPREEQYNSTYRVVSVLTVLHQDWLNGKEYKCKVSNKALPAPIEKTISKAKGQPREPQVCTLPPSRDELTKNQVSLSCAVKGFYPSDIAVEWESNGQPENNYKTTPPVLDSDGSFFLVSKLTVDKSRWQQGNVFSCSVMHEALHNHYTQKSLSLSPGK light 2: DIQMTQSPSSLSASVGDRVTITCRASQSISSYLNWYQKKPGKAPKLLIYAASSLQSGVPSRFSGSGSGTDFTLTISSLQPEDFATYYCQQADLPAFAFGGGTKVEIKRTVAAPSVFIFPPSDEQLKSGTASVVCLLNNFYPREAKVQWKVDNALQSGNSQESVTEQDSKDSTYSLSSTLTLSKADYEKHKVYACEVTHQGLSSPVTKSFNRGEC", "Kd": 0.805, "koff": 0.0002, "kon": 249000}
{"binder": "Her2/Hel bispecific antibody, Combination 2 in Table 3 / Table 9 / Table 10 (anti-Her2: L45K, F126C, C220S / Y87D, Q124C, C214S; anti-Hel: L45D / Y87K) (bispecific antibody) heavy 1: not shown light 1: not shown heavy 2: EVRLLESGGGLVQPGGSLRLSCAASGFTFSNYAMGWVRQAPGKGDEWVSAISGSGGSTYYADSVKGRFTTSRDDSKNALYLQMNSLRAEDTAVYYCARGGPGWYAADVWGQGTTVTVSSASTKGPSVFPLAPSSKSTSGGTAALGCLVKDYFPEPVTVSWNSGALTSGVHTFPAVLQSSGLYSLSSVVTVPSSSLGTQTYICNVNHKPSNTKVDKKVEPKSCDKTHTCPPCPAPEAAGGPSVFLFPPKPKDTLMISRTPEVTCVVVDVSHEDPEVKFNWYVDGVEVHNAKTKPREEQYNSTYRVVSVLTVLHQDWLNGKEYKCKVSNKALPAPIEKTISKAKGQPREPQVCTLPPSRDELTKNQVSLSCAVKGFYPSDIAVEWESNGQPENNYKTTPPVLDSDGSFFLVSKLTVDKSRWQQGNVFSCSVMHEALHNHYTQKSLSLSPGK light 2: DIQMTQSPSSLSASVGDRVTITCRASQSISSYLNWYQQKPGKAPKLLIYAASSLQSGVPSRFSGSGSGTDFTLTISSLQPEDFATYKCQQADLPAFAFGGGTKVEIKRTVAAPSVFIFPPSDEQLKSGTASVVCLLNNFYPREAKVQWKVDNALQSGNSQESVTEQDSKDSTYSLSSTLTLSKADYEKHKVYACEVTHQGLSSPVTKSFNRGEC", "Kd": 0.748, "koff": 0.0002, "kon": 268000}
{"binder": "Her2/Hel bispecific antibody, Combination 3 in Table 3 / Table 9 / Table 10 (anti-Her2: L45K, F126C, C220S / P44D, Q124C, C214S; anti-Hel: L45D / P44K) (bispecific antibody, human IgG1, kappa, L234A L235A) heavy 1: not shown light 1: not shown heavy 2: EVRLLESGGGLVQPGGSLRLSCAASGFTFSNYAMGWVRQAPGKGDEWVSAISGSGGSTYYADSVKGRFTTSRDDSKNALYLQMNSLRAEDTAVYYCARGGPGWYAADVWGQGTTVTVSSASTKGPSVFPLAPSSKSTSGGTAALGCLVKDYFPEPVTVSWNSGALTSGVHTFPAVLQSSGLYSLSSVVTVPSSSLGTQTYICNVNHKPSNTKVDKKVEPKSCDKTHTCPPCPAPEAAGGPSVFLFPPKPKDTLMISRTPEVTCVVVDVSHEDPEVKFNWYVDGVEVHNAKTKPREEQYNSTYRVVSVLTVLHQDWLNGKEYKCKVSNKALPAPIEKTISKAKGQPREPQVCTLPPSRDELTKNQVSLSCAVKGFYPSDIAVEWESNGQPENNYKTTPPVLDSDGSFFLVSKLTVDKSRWQQGNVFSCSVMHEALHNHYTQKSLSLSPGK light 2: DIQMTQSPSSLSASVGDRVTITCRASQSISSYLNWYQQKPGKAKKLLIYAASSLQSGVPSRFSGSGSGTDFTLTISSLQPEDFATYYCQQADLPAFAFGGGTKVEIKRTVAAPSVFIFPPSDEQLKSGTASVVCLLNNFYPREAKVQWKVDNALQSGNSQESVTEQDSKDSTYSLSSTLTLSKADYEKHKVYACEVTHQGLSSPVTKSFNRGEC", "Kd": 0.758, "koff": 0.0002, "kon": 264000}
{"binder": "Her2/Hel bispecific antibody, Combination 4 in Table 3 / Table 9 / Table 10 (anti-Her2: Y91K, F126C, C220S / A43D, Q124C, C214S; anti-Hel: Y91D / A43K) (bispecific antibody, human IgG1, kappa, L234A L235A) heavy 1: not shown light 1: not shown heavy 2: EVRLLESGGGLVQPGGSLRLSCAASGFTFSNYAMGWVRQAPGKGLEWVSAISGSGGSTYYADSVKGRFTTSRDDSKNALYLQMNSLRAEDTAVYDCARGGPGWYAADVWGQGTTVTVSSASTKGPSVFPLAPSSKSTSGGTAALGCLVKDYFPEPVTVSWNSGALTSGVHTFPAVLQSSGLYSLSSVVTVPSSSLGTQTYICNVNHKPSNTKVDKKVEPKSCDKTHTCPPCPAPEAAGGPSVFLFPPKPKDTLMISRTPEVTCVVVDVSHEDPEVKFNWYVDGVEVHNAKTKPREEQYNSTYRVVSVLTVLHQDWLNGKEYKCKVSNKALPAPIEKTISKAKGQPREPQVCTLPPSRDELTKNQVSLSCAVKGFYPSDIAVEWESNGQPENNYKTTPPVLDSDGSFFLVSKLTVDKSRWQQGNVFSCSVMHEALHNHYTQKSLSLSPGK light 2: DIQMTQSPSSLSASVGDRVTITCRASQSISSYLNWYQQKPGKKPKLLIYAASSLQSGVPSRFSGSGSGTDFTLTISSLQPEDFATYYCQQADLPAFAFGGGTKVEIKRTVAAPSVFIFPPSDEQLKSGTASVVCLLNNFYPREAKVQWKVDNALQSGNSQESVTEQDSKDSTYSLSSTLTLSKADYEKHKVYACEVTHQGLSSPVTKSFNRGEC", "Kd": 0.764, "koff": 0.0002, "kon": 262000}
{"binder": "Her2/Hel bispecific antibody, Combination 5 in Table 3 / Table 9 / Table 10 (anti-Her2: Y91K, F126C, C220S / P44D, Q124C, C214S; anti-Hel: Y91D / P44K) (bispecific antibody, human IgG1, kappa, L234A L235A) heavy 1: not shown light 1: not shown heavy 2: EVRLLESGGGLVQPGGSLRLSCAASGFTFSNYAMGWVRQAPGKGLEWVSAISGSGGSTYYADSVKGRFTTSRDDSKNALYLQMNSLRAEDTAVYDCARGGPGWYAADVWGQGTTVTVSSASTKGPSVFPLAPSSKSTSGGTAALGCLVKDYFPEPVTVSWNSGALTSGVHTFPAVLQSSGLYSLSSVVTVPSSSLGTQTYICNVNHKPSNTKVDKKVEPKSCDKTHTCPPCPAPEAAGGPSVFLFPPKPKDTLMISRTPEVTCVVVDVSHEDPEVKFNWYVDGVEVHNAKTKPREEQYNSTYRVVSVLTVLHQDWLNGKEYKCKVSNKALPAPIEKTISKAKGQPREPQVCTLPPSRDELTKNQVSLSCAVKGFYPSDIAVEWESNGQPENNYKTTPPVLDSDGSFFLVSKLTVDKSRWQQGNVFSCSVMHEALHNHYTQKSLSLSPGK light 2: DIQMTQSPSSLSASVGDRVTITCRASQSISSYLNWYQQKPGKAKKLLIYAASSLQSGVPSRFSGSGSGTDFTLTISSLQPEDFATYYCQQADLPAFAFGGGTKVEIKRTVAAPSVFIFPPSDEQLKSGTASVVCLLNNFYPREAKVQWKVDNALQSGNSQESVTEQDSKDSTYSLSSTLTLSKADYEKHKVYACEVTHQGLSSPVTKSFNRGEC", "Kd": 0.72, "koff": 0.0002, "kon": 278000}
